{"source": "patent US5547843", "system": "E. coli single-stranded DNA-binding protein (SSB) (Escherichia coli)", "conditions": "saturating ratio inferred from priming titration (mass ratio SSB:DNA about 2.5); 40 mM Tris-Cl pH 7.5, 50 mM NaCl, 10 mM MgCl2, 0 C; indirect functional …", "data": [{"substance": "M13 single-stranded viral DNA", "values": [{"measurement": "binding (nt per SSB monomer)", "result": 22}]}]}
